Experimental data reported in the DeepSol protein solubility set.

Experiment: soluble on expression in E. coli; label from the status in PepcDB or PDB records
With “MSLRRLLQVFFFCPKQIYSFKLYQSLIFYNYTDAFFSVKIVSTTNFGGHIMSTTIIGFPRLGEFRELKFTTEKYFRKEISEEELLAAAKDLRAKHWNIVKEKGITEIPSNDFSHYDNFLDAAFLFNVVPASVQNLDLSDLERYFALGRGYQGEKGDVRALPMKKWFNTNYHYIVPKFEKDTQVKLAGHKIFDEFQEAKELGLNTRPVLVGPFTFLQLSDFEEGVKADDFVDSFVAAYQEVFAKLADLGATRIQLDEAALVKDLTAEEKALFLNLYNKLLADKKGLEVLFQTYFGDVRDVYADLVNLPVDAIGLDFVEGKKTLELVKGGFPADKTLYVGIVNGKNIWRNNYEKSLTVLEQIPAENIVLTSSCSLLHVPFTTANEEFEPALLNHFAFAVEKLDEIRDLDAIRNGQGSEALAANKELFATERVGENAELRARIAGLTDADYTRLPAFAEREAIQEEAFKLPALPTTTIGSFPQTKEVRAKRLAYRKGELSQKEYDAFLAETIDEWIKWQEDIDFDVLVHGEFERNDMVEYFGQNLSGYLFSKNGWVQSYGMRGVKPPIIWGDVTRLNPITVKWSSYAQSRTNKPVKGMLTGPVTILNWSFPREDISIKDSTLQIALAIKDEVLDLEAAGVKIIQIDEAALREKLPLRRSDWYEDYLDWAIPAFRLVHSTVAPDTQIHTHMCYSEFTDIIPAIDNMDADVISFEASRSNLEILDELKAKNFQTEVGPGVYDIHSPRVPNEGEIDNTIEAILAKVPSKKVWINPDCGLKTRGIPETKESLIRLVEAAKAAREKLEGHHHHHH” the “soluble on expression in E. coli” value was “soluble”.
In the case of “MSLRTIVFDVDDTLYDQQQPFRNAMTKIFPNVATEDMHELYLRFRHHSDETFPKVLANEWSLDFMRFFRMNETLKDLNYPGISQEEGKIFQQVYEEELDNITMHPEVTKLLDTLQEKEIPMGIITNGPTDHQFKKVKQLNIEKWVPSQNIIISQSTGFQKPEKEIFDLACNQFCMEPEHTLYVGDSYDNDIVGARNGGWHSLWFNHRSRELPSCQPASHLAEVTCFTELCPTVEKLFNLEGHHHHHH”, the “soluble on expression in E. coli” value is reported as “soluble”.
In the case of “MSLRTTHIPLVAIVLASVCSSLAAPKAGGLELIILHNNDMHARFEQTGAYSNDCQPSDVASNRCYGGFARVAHKVREYRATEASGGLPVLYLNAGDTYTGTPWFSVFKDNITAAFLNILKPDAISLGNHEFDLGVEGLVPFLNEVDFPVLVTNLDLSKTPEMQTSRSLQRSIIFTKAGVRIGVIGYLTPETKQLAPINTVEFLDEIEEINKEATSLKNQGVNILIALGHSGLERDKEIAAQCPDVDLVIGGHSHTFLYSGTAPDVEDPAGPYPVMVKNAAGKEVPVVQAYAYTKYLGYLHLQFDTEGNLIELDGTPLLLNGTVERDSDVLQLLELYRPGILALDAQIGHSNVFLDSSRCRFEECNIGNMIADSLVITYATTREQSNDGFWTDAAIGFIQGGGIRASVNAGPITMKDLKTVLPFGNAMVVTDITGAQLRQMLEQSVHRYDGVSGYGEFLQMAGVNVEYDLSRPPMQRVVHVKVRCARCQVPAYEELQDDGVYRVILSQFLYDGGDGYEMLPGSPRQLLTFGEYEITEEYLKRYSPIYPAIEWRIRMQGQPNVTEGHHHHHH”, the “soluble on expression in E. coli” value is reported as “soluble”.
For “MSLRVAVGMSGGVDSSVTALLLKEQGHDVIRVTLRFHTVEACEVNETHNVCCSPKDVQDASRVAKRLGIPHLVFSWEEIFKSKVIDYFVEEYKRGRTPNPCALCNREVKTGFFARYLKQVADIDKLATGHYAKIEEDKKYGLVIKRPKDRKRDQTYFLSLVRREDLELLTFPLGAYTKEEVREIAKRYGLEVAQKRDSQEVCFLMGKSPGEYLEGILGKQRGLIKHVSGKVLGEHEGVYRYTIGQRRGLGISYGKPVYVIDIDAKTNTLIVGEEEYLYNDKLLVKEINFHVPLEKWENVSAQIRYRHKPVPVERIEKTEEGFLVKFKEDVRGITPGQVVAFYDGDVLLGGGIIEESVKEGHHHHHH”, the “soluble on expression in E. coli” value was “soluble”.
In the case of “MSLRVEAQNISKTFGEVQALKDLSFVIEKGKALGLLGRNGAGKTTAIRILLGILPSDTGKVLVDNKKLSFDENAFGYLPEERGLYLKYTVKSQLMHFASLYGMKKKEALNSIEYWLEKFEISEYLNKKVETLSKGNKQKIQLIVAVMHDPEVIILDEPFSGLDPVNVELFKTVIRELLAKGKTLIFSSHRMADVEEFCDDIIMLKKGETMLQGNLDKIKEDYGIKGLVVEGEEKVQDFLKELGFEALEFKKGSYRVNLKDLEKGKELLRKITNTDLDIRGFYFERPSLNDIFIERLGEGHHHHHH”, the “soluble on expression in E. coli” value is reported as “soluble”.
With “MSLRVENLRSSTYRNGPTGLPNRARFSEDLDAVLLQRTADSAATAIAVDLCGSDYFRDMVKALGWDYADGYVALAYKRLISKLPAGTALYRLDTTTFAFMVTTADPLRLSALCSKISKGFVAPLEHQGIPHTAVASIGAVLLETSYGAADTLRSLTTSVDVAREHCLTWSLYEREGHHHHHH” the “soluble on expression in E. coli” value was “not soluble”.
